Here are results for 23 sequences from the Immune Epitope Database (IEDB).

In one experiment the target is HLA-A*68:02. As to the kind of experiment: IEDB peptide-MHC binding, cellular MHC/competitive/fluorescence; ≥ and ≤ were set here for values at or beyond the usual limits of such assays.
Another experiment addresses HLA-A*02:01. The experiment in a line: IEDB peptide-MHC binding, purified MHC/competitive/radioactivity; ≥ and ≤ were set here for values at or beyond the usual limits of such assays.
The next experiment addresses HLA-A*02:02. The experiment is described as above.
In another experiment the target is HLA-A*02:03. The experiment is described as above.
Another experiment concerns the target HLA-A*02:06. The description is as above.
Where [1] appears, read: source organism: Hepacivirus hominis.
Setting [2] is: source organism: Vaccinia virus WR.

For orientation: IC50 means the concentration that inhibits the measured activity by half.

Consider ALLRMCALV, for which the half-maximal inhibitory concentration (IC50) in the experiment with HLA-A*68:02 (setting [1]) was 6490 nM; in the experiment with HLA-A*02:01 (setting [1]), 34 nM; with HLA-A*02:02 (setting [1]) it was 83 nM; with HLA-A*02:03 (setting [1]), 65 nM; with HLA-A*02:06 (setting [1]), 417 nM.

For ALLSCIRNA, the IC50 is ≥ 70000 nM with HLA-A*68:02 (setting [2]); 23 nM with HLA-A*02:01 (setting [2]); 120 nM in the experiment with HLA-A*02:02 (setting [2]); 6.2 nM with HLA-A*02:03 (setting [2]); 77 nM with HLA-A*02:06 (setting [2]).

With ALLSCLTTPA, the half-inhibitory concentration (IC50) was ≥ 70000 nM with HLA-A*68:02 (setting [1]); 161 nM with HLA-A*02:01 (setting [1]); 439 nM in the experiment with HLA-A*02:02 (setting [1]); 211 nM with HLA-A*02:03 (setting [1]); 231 nM with HLA-A*02:06 (setting [1]).

ALMTLDDLAI: the IC50 with HLA-A*68:02 (setting [2]) is 7700 nM; with HLA-A*02:01 (setting [2]), 0.74 nM; with HLA-A*02:02 (setting [2]) it was 14 nM; with HLA-A*02:03 (setting [2]) it was 29 nM; with HLA-A*02:06 (setting [2]), 24 nM.

Regarding ALSGVFCGV, the half-inhibitory concentration (IC50) worked out at 22500 nM in the experiment with HLA-A*68:02 (source organism: SARS-CoV1); 13 nM with HLA-A*02:01 (source organism: SARS-CoV1); 1.2 nM with HLA-A*02:02 (source organism: SARS-CoV1); 12 nM with HLA-A*02:03 (source organism: SARS-CoV1); 50 nM with HLA-A*02:06 (source organism: SARS-CoV1).

Turning to ALTDVEKRIL, the concentration for half-maximal inhibition (IC50) worked out at 13800 nM with HLA-A*68:02 (setting [2]); 429 nM in the experiment with HLA-A*02:01 (setting [2]); 97 nM with HLA-A*02:02 (setting [2]); 127 nM with HLA-A*02:03 (setting [2]); 934 nM with HLA-A*02:06 (setting [2]).

For the sequence ALVFLILCFT, the IC50 with HLA-A*68:02 (source organism: SARS-CoV1) stood at 10500 nM; in the experiment with HLA-A*02:01 (source organism: SARS-CoV1), 161 nM; in the experiment with HLA-A*02:02 (source organism: SARS-CoV1), 209 nM; with HLA-A*02:03 (source organism: SARS-CoV1), 1120 nM; with HLA-A*02:06 (source organism: SARS-CoV1), 229 nM.

ALVLLILMTA: the IC50 was 12500 nM with HLA-A*68:02 (source organism: SARS-CoV1); 325 nM with HLA-A*02:01 (source organism: SARS-CoV1); 67 nM with HLA-A*02:02 (source organism: SARS-CoV1); 51 nM with HLA-A*02:03 (source organism: SARS-CoV1); 61 nM with HLA-A*02:06 (source organism: SARS-CoV1).

With ALVSGTATA, the 50% inhibitory concentration (IC50) in the experiment with HLA-A*68:02 (source organism: SARS-CoV1) came to 31300 nM; with HLA-A*02:01 (source organism: SARS-CoV1) it was 134 nM; with HLA-A*02:02 (source organism: SARS-CoV1), 4.6 nM; with HLA-A*02:03 (source organism: SARS-CoV1), 8.1 nM; with HLA-A*02:06 (source organism: SARS-CoV1) it was 269 nM.

As for ALYGVWPLLL, the IC50 turned out to be 20600 nM with HLA-A*68:02 (setting [1]); 9 nM with HLA-A*02:01 (setting [1]); 8.9 nM in the experiment with HLA-A*02:02 (setting [1]); 7.5 nM with HLA-A*02:03 (setting [1]); 166 nM with HLA-A*02:06 (setting [1]).

Take AMIHKTYIDV: the half-maximal inhibitory concentration (IC50) with HLA-A*68:02 (setting [2]) came out at 21200 nM; in the experiment with HLA-A*02:01 (setting [2]), 173 nM; in the experiment with HLA-A*02:02 (setting [2]) it was 335 nM; with HLA-A*02:03 (setting [2]), 27 nM; in the experiment with HLA-A*02:06 (setting [2]) it was 206 nM.

Consider AQFLYLYAL, for which the concentration for half-maximal inhibition (IC50) was 9620 nM in the experiment with HLA-A*68:02 (source organism: SARS-CoV1); 0.39 nM in the experiment with HLA-A*02:01 (source organism: SARS-CoV1); 0.92 nM with HLA-A*02:02 (source organism: SARS-CoV1); 6.2 nM in the experiment with HLA-A*02:03 (source organism: SARS-CoV1); 0.35 nM with HLA-A*02:06 (source organism: SARS-CoV1).

Turning to AQMGTLLIA, the IC50 was 12200 nM with HLA-A*68:02 (source organism: SARS-CoV1); 37 nM with HLA-A*02:01 (source organism: SARS-CoV1); 65 nM with HLA-A*02:02 (source organism: SARS-CoV1); 1.6 nM with HLA-A*02:03 (source organism: SARS-CoV1); 0.44 nM with HLA-A*02:06 (source organism: SARS-CoV1).

As to ATLNTLITL, the IC50 came to 5360 nM with HLA-A*68:02 (setting [2]); 57 nM with HLA-A*02:01 (setting [2]); 373 nM with HLA-A*02:02 (setting [2]); 577 nM with HLA-A*02:03 (setting [2]); 9.6 nM with HLA-A*02:06 (setting [2]).

AVTLNRIKIA: the IC50 worked out at 11000 nM with HLA-A*68:02 (setting [2]); 1250 nM with HLA-A*02:01 (setting [2]); 1720 nM with HLA-A*02:02 (setting [2]); 1290 nM with HLA-A*02:03 (setting [2]); 2290 nM with HLA-A*02:06 (setting [2]).

In the case of CLLTDTIESA, the half-inhibitory concentration (IC50) worked out at 22200 nM with HLA-A*68:02 (setting [2]); 188 nM with HLA-A*02:01 (setting [2]); 53 nM with HLA-A*02:02 (setting [2]); 102 nM with HLA-A*02:03 (setting [2]); 92 nM with HLA-A*02:06 (setting [2]).

On to CLTVPNITI, for which the IC50 is 8000 nM in the experiment with HLA-A*68:02 (setting [2]); 1190 nM with HLA-A*02:01 (setting [2]); 96 nM in the experiment with HLA-A*02:02 (setting [2]); 75 nM in the experiment with HLA-A*02:03 (setting [2]); 1660 nM in the experiment with HLA-A*02:06 (setting [2]).

Regarding CLWWTCYMLV, the IC50 stood at 10300 nM with HLA-A*68:02 (setting [1]); 271 nM in the experiment with HLA-A*02:01 (setting [1]); 1870 nM with HLA-A*02:02 (setting [1]); 891 nM with HLA-A*02:03 (setting [1]); 2700 nM in the experiment with HLA-A*02:06 (setting [1]).

In the case of DLLFNEKLKV, the half-maximal inhibitory concentration (IC50) came to 9970 nM with HLA-A*68:02 (setting [2]); 149 nM with HLA-A*02:01 (setting [2]); 357 nM in the experiment with HLA-A*02:02 (setting [2]); 317 nM with HLA-A*02:03 (setting [2]); 2020 nM with HLA-A*02:06 (setting [2]).

Regarding DMLKLFTHDI, the IC50 with HLA-A*68:02 (setting [2]) worked out at 6410 nM; with HLA-A*02:01 (setting [2]) it was 1450 nM; with HLA-A*02:02 (setting [2]) it was 196 nM; in the experiment with HLA-A*02:03 (setting [2]), 16 nM; in the experiment with HLA-A*02:06 (setting [2]), 2970 nM.

Take DMLLNVQTLI: the half-maximal inhibitory concentration (IC50) came to 6690 nM with HLA-A*68:02 (setting [2]); 80 nM with HLA-A*02:01 (setting [2]); 42 nM with HLA-A*02:02 (setting [2]); 161 nM with HLA-A*02:03 (setting [2]); 291 nM with HLA-A*02:06 (setting [2]).

On to FLARKGIDT, for which the IC50 is ≥ 70000 nM in the experiment with HLA-A*68:02 (setting [2]); 1420 nM in the experiment with HLA-A*02:01 (setting [2]); 1020 nM with HLA-A*02:02 (setting [2]); 318 nM with HLA-A*02:03 (setting [2]); 3040 nM with HLA-A*02:06 (setting [2]).

Turning to FLDWIKDIM, the IC50 with HLA-A*68:02 (setting [2]) was found to be 26800 nM; in the experiment with HLA-A*02:01 (setting [2]) it was 19 nM; in the experiment with HLA-A*02:02 (setting [2]), 0.78 nM; with HLA-A*02:03 (setting [2]), 297 nM; with HLA-A*02:06 (setting [2]), 162 nM.
